The text below walks through data of paper doi:10.1101/2024.06.17.599268 (bioRxiv, 2024).

One assay concerns the target T1, Rab8a_(1-176) (human, UniProt P61006 1-176).
T1 sequence: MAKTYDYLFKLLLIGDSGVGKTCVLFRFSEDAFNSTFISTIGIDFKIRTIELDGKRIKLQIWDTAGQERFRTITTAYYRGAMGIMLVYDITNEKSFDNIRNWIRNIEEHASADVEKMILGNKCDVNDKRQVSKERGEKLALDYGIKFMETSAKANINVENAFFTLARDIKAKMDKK
Nature of the assay: ITC.

Assay [1] addresses T2, Mical1 MO-CH-LIM (residues 1-781) (human, UniProt Q8TDZ2 1-781).
T2 sequence: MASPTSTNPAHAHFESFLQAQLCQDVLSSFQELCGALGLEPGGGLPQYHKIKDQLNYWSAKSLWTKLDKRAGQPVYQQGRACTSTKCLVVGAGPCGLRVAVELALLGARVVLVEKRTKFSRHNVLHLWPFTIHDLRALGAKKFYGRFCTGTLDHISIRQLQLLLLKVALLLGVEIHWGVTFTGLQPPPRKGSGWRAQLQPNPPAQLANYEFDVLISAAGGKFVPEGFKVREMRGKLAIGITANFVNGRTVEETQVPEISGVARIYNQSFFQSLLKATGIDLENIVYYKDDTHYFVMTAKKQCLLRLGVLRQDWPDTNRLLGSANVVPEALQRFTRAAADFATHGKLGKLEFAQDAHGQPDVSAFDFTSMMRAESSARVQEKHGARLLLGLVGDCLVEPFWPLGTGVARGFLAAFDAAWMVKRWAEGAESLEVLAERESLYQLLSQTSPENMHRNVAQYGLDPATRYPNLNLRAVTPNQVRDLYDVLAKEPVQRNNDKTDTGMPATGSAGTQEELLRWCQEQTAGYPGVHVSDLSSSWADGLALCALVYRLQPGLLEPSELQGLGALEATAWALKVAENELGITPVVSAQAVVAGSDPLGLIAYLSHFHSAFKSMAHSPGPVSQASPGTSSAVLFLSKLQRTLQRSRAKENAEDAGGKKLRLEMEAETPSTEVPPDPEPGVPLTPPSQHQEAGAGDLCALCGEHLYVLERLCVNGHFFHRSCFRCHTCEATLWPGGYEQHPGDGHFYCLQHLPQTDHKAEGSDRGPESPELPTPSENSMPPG
Put plainly: ITC.

In a further assay the target is T3, Rab10_(1-175) (human, UniProt P61026 1-175).
T3 sequence: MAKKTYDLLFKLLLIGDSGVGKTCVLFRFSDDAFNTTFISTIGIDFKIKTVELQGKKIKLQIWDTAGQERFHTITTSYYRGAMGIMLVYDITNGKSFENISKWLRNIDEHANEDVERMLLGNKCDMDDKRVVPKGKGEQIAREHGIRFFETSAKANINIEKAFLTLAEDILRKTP
Put plainly: crystal structure.

B1: bMERB_(V978A) (domain or fragment)
chain: KEEEMKRFCKAQTIQRRLNEIEAALRELEAEGVKLELALRRQSSSPEQQKKLWVGQLLQLADKKNSLVAEEAELMITVQELNLEEKQWQLDQELRGYMNREENLKTAADRQAEDQVLRKLVDLVNQRDALIRFQEERRLSELALGTGAQG
Turning to B1, the binding result with Rab8a_(1-176) and with Rab10_(1-175) was “binds” each time. In addition, in assay [1], the “fold reduction in affinity against wild-type bMERB” value is 2 fold.
